Assay results as given in patent US20190055314A1.
Blank lines part the entries; values can stand above or below the substance they belong to.

Experiments:
Hu_CRD1-CRD2 (human) = Hu_CRD1-CRD2 (human) (UniProt Q07011); experiment: flow cytometry, yeast display [Cont.]
[1] = target: Hu_CRD1-CRD2-CRD3 (human) (UniProt Q07011); experiment: flow cytometry, yeast display [Cont.]
Hu_CRD2 (human) = Hu_CRD2 (human) (UniProt Q07011); experiment: flow cytometry, yeast display [Cont.]
Hu_CRD2-CRD3 (human) = Hu_CRD2-CRD3 (human) (UniProt Q07011); experiment: flow cytometry, yeast display [Cont.]
[2] = target: Hu_CRD2-CRD3-CRD4 (human) (UniProt Q07011); experiment: flow cytometry, yeast display [Cont.]
Hu_CRD3-CRD4 (human) = Hu_CRD3-CRD4 (human) (UniProt Q07011); experiment: flow cytometry, yeast display [Cont.]
Hu_CRD4 (human) = Hu_CRD4 (human) (UniProt Q07011); experiment: flow cytometry, yeast display [Cont.]
[3] = target: full-length human CD137 on the cell surface (human) (UniProt Q07011); experiment: flow cytometry, yeast display [Cont.]
[4] = target: full-length mouse CD137 on the cell surface (mouse) (UniProt P20334); experiment: flow cytometry, yeast display [Cont.]
[5] = target: full-length monkey CD137 on the cell surface (cynomolgus monkey); experiment: flow cytometry, PMA/ionomycin-activated monkey T cells, antibody 100 nM
[6] = target: CD27 overexpressed on HEK293F cells (UniProt P26842); experiment: flow cytometry, HEK293F cells expressing the receptor, antibody 100 nM [Cont.]
[7] = target: CD40 overexpressed on HEK293F cells (UniProt P25942); experiment: as above
CD95 = experiment: as above
[8] = target: GITR overexpressed on HEK293F cells (UniProt Q9Y5U5); experiment: as above
[9] = target: OX40 overexpressed on HEK293F cells (UniProt P43489); experiment: as above
[10] = target: full-length human CD137 on the cell surface (human) (UniProt Q07011); experiment: as above
[11] = target: purified C1q component of the human complement (human) (UniProt P02745); experiment: ELISA, direct binding of antibody to purified human complement C1q, A450
Sequence of purified C1q component of the human complement (human) (P02745 23-245, chain 1 of 3): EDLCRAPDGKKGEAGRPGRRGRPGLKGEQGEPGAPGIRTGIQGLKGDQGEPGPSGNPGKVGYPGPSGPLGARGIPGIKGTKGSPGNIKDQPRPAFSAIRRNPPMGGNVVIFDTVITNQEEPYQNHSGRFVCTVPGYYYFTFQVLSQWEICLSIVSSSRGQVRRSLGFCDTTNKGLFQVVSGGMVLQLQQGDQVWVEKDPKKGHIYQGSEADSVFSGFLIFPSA
Sequence of purified C1q component of the human complement (human) (P02746 28-253, chain 2 of 3, further chain): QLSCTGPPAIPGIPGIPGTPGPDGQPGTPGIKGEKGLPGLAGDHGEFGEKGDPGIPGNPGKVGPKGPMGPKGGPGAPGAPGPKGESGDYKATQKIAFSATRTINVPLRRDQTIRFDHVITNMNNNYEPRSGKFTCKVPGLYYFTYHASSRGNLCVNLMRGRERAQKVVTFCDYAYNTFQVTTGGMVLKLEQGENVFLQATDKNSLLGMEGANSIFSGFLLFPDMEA
Sequence of purified C1q component of the human complement (human) (P02747 29-245, chain 3 of 3, further chain): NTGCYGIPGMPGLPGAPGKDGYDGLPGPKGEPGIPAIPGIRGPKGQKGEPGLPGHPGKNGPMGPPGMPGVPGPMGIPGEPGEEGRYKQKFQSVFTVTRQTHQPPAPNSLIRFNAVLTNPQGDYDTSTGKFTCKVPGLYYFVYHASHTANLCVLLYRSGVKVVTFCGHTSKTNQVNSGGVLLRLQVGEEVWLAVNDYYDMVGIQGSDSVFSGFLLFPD

Sequence of full-length human CD137 on the cell surface (human) (Q07011 18-255): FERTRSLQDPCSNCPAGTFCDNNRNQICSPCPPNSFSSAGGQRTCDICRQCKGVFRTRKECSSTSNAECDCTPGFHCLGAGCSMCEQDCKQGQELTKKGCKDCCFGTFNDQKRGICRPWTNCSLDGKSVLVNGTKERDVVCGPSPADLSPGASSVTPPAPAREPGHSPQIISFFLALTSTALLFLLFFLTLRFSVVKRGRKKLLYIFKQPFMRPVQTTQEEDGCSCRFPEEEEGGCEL
Sequence of Hu_CRD2 (human) (Q07011 46-86 limits assumed): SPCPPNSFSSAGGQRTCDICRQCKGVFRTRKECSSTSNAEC
Sequence of Hu_CRD1-CRD2 (human) (Q07011 24-86 limits assumed): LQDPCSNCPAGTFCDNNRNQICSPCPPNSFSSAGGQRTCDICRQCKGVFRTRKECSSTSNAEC
Sequence of full-length mouse CD137 on the cell surface (mouse) (P20334 24-178 limits assumed): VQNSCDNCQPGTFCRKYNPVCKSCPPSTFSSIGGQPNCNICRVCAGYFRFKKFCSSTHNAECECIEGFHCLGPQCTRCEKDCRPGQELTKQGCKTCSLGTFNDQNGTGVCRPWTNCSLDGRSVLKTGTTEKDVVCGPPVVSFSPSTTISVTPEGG
Sequence of Hu_CRD2-CRD3 (human) (Q07011 46-118 limits assumed): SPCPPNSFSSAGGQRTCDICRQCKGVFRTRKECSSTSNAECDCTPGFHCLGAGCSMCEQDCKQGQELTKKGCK
Sequence of Hu_CRD2-CRD3-CRD4 (human) (Q07011 46-159 limits assumed): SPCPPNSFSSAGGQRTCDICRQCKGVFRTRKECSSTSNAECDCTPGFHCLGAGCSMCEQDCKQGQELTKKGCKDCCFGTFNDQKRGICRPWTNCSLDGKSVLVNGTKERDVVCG
Sequence of Hu_CRD3-CRD4 (human) (Q07011 87-159 limits assumed): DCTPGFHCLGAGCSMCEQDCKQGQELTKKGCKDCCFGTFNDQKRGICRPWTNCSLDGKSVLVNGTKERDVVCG
Sequence of Hu_CRD4 (human) (Q07011 119-159 limits assumed): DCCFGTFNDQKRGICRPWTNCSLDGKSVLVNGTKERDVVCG
Sequence of Hu_CRD1-CRD2-CRD3 (human) (Q07011 24-118 limits assumed): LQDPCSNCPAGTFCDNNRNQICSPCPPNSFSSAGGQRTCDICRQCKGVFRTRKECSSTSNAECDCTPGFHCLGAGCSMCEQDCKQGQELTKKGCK
Sequence of full-length monkey CD137 on the cell surface (cynomolgus monkey) (Q07011 other isoform, or with tags, fused parts or gaps): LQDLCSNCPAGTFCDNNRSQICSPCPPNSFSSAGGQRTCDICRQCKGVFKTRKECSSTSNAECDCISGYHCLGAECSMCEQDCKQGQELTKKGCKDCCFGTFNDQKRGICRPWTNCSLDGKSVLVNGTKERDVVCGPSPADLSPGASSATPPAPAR
Sequence of OX40 overexpressed on HEK293F cells (P43489 29-277 limits assumed): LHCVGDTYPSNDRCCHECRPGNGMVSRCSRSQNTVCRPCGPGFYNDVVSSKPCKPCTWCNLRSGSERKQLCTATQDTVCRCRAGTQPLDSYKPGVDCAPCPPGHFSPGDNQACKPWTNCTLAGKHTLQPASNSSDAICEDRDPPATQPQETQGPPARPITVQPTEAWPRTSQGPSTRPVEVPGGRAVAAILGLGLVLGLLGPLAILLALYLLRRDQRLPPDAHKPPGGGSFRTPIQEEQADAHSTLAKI
Sequence of CD40 overexpressed on HEK293F cells (P25942 21-277 limits assumed): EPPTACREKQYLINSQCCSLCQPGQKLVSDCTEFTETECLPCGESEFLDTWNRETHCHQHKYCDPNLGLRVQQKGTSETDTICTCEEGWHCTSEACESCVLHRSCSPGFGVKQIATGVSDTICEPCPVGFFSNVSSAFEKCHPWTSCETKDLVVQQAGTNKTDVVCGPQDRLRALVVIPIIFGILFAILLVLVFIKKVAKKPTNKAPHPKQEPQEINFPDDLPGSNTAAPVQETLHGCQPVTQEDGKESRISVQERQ
Sequence of GITR overexpressed on HEK293F cells (Q9Y5U5 26-241 limits assumed): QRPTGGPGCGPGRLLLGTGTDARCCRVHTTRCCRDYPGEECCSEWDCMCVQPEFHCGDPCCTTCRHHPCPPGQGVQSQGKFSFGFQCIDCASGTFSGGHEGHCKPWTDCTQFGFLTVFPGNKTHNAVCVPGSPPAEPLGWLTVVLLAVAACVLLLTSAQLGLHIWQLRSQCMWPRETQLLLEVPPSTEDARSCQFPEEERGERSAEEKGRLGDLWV
Sequence of CD27 overexpressed on HEK293F cells (P26842 20-260 limits assumed): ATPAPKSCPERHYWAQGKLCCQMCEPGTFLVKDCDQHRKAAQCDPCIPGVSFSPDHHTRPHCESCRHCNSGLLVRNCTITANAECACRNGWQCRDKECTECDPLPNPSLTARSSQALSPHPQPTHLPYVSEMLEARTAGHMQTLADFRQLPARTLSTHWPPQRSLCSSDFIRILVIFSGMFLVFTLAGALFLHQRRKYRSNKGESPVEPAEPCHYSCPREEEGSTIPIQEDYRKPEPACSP
Sequence of CD95 (chain, as listed by the source limits assumed): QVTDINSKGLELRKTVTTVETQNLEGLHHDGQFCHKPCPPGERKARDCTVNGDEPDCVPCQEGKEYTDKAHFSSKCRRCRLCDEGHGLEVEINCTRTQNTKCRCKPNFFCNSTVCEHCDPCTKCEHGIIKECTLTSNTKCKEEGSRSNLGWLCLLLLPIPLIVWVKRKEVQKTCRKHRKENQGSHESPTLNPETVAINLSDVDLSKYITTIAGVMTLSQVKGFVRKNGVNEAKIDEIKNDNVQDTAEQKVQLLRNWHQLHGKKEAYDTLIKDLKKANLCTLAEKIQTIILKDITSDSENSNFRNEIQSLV

% in upper right quadrant (Hu_CRD1-CRD2 (human)): 0.15%
Mean (Hu_CRD1-CRD2 (human)): 5560
% in upper right quadrant [1]: 0.1%
Mean [1]: 3680
% in upper right quadrant (Hu_CRD2 (human)): 0.18%
Mean (Hu_CRD2 (human)): 4650
% in upper right quadrant (Hu_CRD2-CRD3 (human)): 0.14%
Mean (Hu_CRD2-CRD3 (human)): 6280
% in upper right quadrant [2]: 0.2%
Mean [2]: 15000
% in upper right quadrant (Hu_CRD3-CRD4 (human)): 0.17%
Mean (Hu_CRD3-CRD4 (human)): 6860
% in upper right quadrant (Hu_CRD4 (human)): 0.23%
Mean (Hu_CRD4 (human)): 11000
% in upper right quadrant [3]: 0.14%
Mean [3]: 9600
% in upper right quadrant [4]: 0.18%
Mean [4]: 14800
% of cells positive for antibody binding [5]: 1.5%
Mean [6]: 48100
Median [7]: 5730
Mean (CD95): 5140
Mean [8]: 8970
Mean [9]: 5300
Mean [10]: 7360
Substance: Isotype (antibody)

EC50 (read off the curve) [11]: 2 nM
Substance: human IgG1 isotype control antibody

% in upper right quadrant (Hu_CRD2 (human)): 0.16%
Mean (Hu_CRD2 (human)): 14600
Substance: mouse CD137L (from UniProt P41274 104-309) (ligand)
